Source: the supplement of paper PMC9170038

Tested on: MS2 coat protein
Experiment: apparent KD of MS2 coat protein; designed switch direction (-1 OFF switch, 1 ON switch): -1; higher = weaker reporter binding
Summary of the method: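 Apparent KD, taken as the median over clusters for each design, was obtained by curve-fitting normalised cluster fluorescence. Designed RNA switches had been transcribed on Illumina chips by stalled E. coli RNA polymerase and titrated with SNAP-549-labelled MS2 coat protein, doubling from 0.7 or 1.5 nM to 3 µM.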

[1] = Eterna round: R95, input ligand: FMN 200 uM
[2] = Eterna round: R95, input ligand: microRNA oligo, concentration not stated
[3] = Eterna round: R95, input ligand: none
[4] = input ligand: microRNA oligo, concentration not stated

Row | Sequence | apparent KD of MS2 coat protein (input ligand: FMN 200 uM) [nM] | apparent KD of MS2 coat protein (input ligand: none) [nM] | apparent KD of MS2 coat protein [1] [nM] | apparent KD of MS2 coat protein [2] [nM] | apparent KD of MS2 coat protein [3] [nM] | apparent KD of MS2 coat protein [4] [nM]
1 | CGGUAAAUAGGAUAUACAUGAGGAUCACCCAUGUUCCAUAGCACUCGGAGGGUUCCCAGUAGAAGGGUUGGCCU [EX3 C.17] (Eterna round: R97, puzzle: Exclusion 3) | 16 | 19.4 | – | – | – | –
2 | CGGUACUGAGGAUAUACAUGAGGAUCACCCAUGUGUACUAGCUAGCGUACUGGCAUUAGUAGAAGGCGGUGCUG [JL-ex3-3.20 Brourd mod] (puzzle: Exclusion 3) | – | – | 19.8 | 11.5 | 13.2 | –
3 | CGGUGACAUGAGGAUCACCCAUGUCAGGAUAUCCAGGUCGACAAUGAGCUGUACGAUUGGAGAAGGGAUACGGG [EX1 C.9] (Eterna round: R97, puzzle: Exclusion 1) | 20.6 | 23.7 | – | – | – | –
4 | CGGUGCUCGUGGAAACAUGAGGAUCACCCAUGUAGAGUUAGCGAGGAUAUCGGUAACACACAUCACGAGAAGGCGCGAACCUGU [Ex NG3 #6] (Eterna round: R96, puzzle: Exclusion NG 3) | 31.7 | 20.8 | – | – | – | 12.1
5 | CGGUGCUGAGGAUAUACAUGAGGAUCACCCAUGUGUUCCAGCUAGCGUACUGGCAGAUGUAGAAGGCGGUACUG [JL-ex3-3.42 Brourd mod] (puzzle: Exclusion 3) | – | – | 78.9 | 19.9 | 19 | –
6 | CGGUGUAGAGGAUAUACGUGAAUAUAAGAACAUAAUAAUUAACAUGAGGAUCACCCAUGUAGAAGGCUAUAGCG [JR_Ex2_Sub081] (Eterna round: R97, puzzle: Exclusion 2) | 34.3 | 16.7 | – | – | – | –
7 | CGGUGUAGAGGAUAUACGUGAAUUUUGUUAUUUUUUAAUUUACAUGAGGAUCACCCAUGUAGAAGGCUAUAGCG [JR_Ex2_Sub086] (Eterna round: R97, puzzle: Exclusion 2) | 23.4 | 21.9 | – | – | – | –
8 | CGGUGUAGAGGAUAUACGUGGAUGUAAAUUCAUGAUAUUUUACAUGAGGAUCACCCAUGUAGAAGGCUAUAGCG [JR_Ex2_Sub078] (Eterna round: R97, puzzle: Exclusion 2) | 74.2 | 229 | – | – | – | –
9 | CGGUGUCAUGUAAGGAUAUCGCAUCCCAGCGGAUACGAGAAGGUACAUGAGGAUCACCCAUGUACGAUAAAAUA [Atzabian] (puzzle: Brourd's mod of Exclusion 4) | – | – | – | 12.5 | – | –
10 | CGUACUGAAGUAAGGAUAUUGUCUCGGAUACGAAACAAGAAGGUACAUGAGGAUCACCCAUGUUGACAGUACGA [Malc #30 mod 8] (puzzle: Brourd's mod of Exclusion 4) | – | – | – | 14 | – | –
11 | CGUACUGAAGUUAGGAUAUUGUCUCGGAUACGAAACAAGAAGGGACAUGAGGAUCACCCAUGUAGACAGUACGA [Malc #30 mod 4] (puzzle: Brourd's mod of Exclusion 4) | – | – | 24.7 | 27.1 | 27.7 | –
12 | CGUAGCAAAGUGAGGAUAUCUAGAGCGAUAGCUCUAGAGAAGGCACAUGAGGAUCACCCAUGUGAUUAGCUACG [BmEx4/9-A4] (Eterna round: R97, puzzle: Brourd's mod of Exclusion 4) | 146 | 27.8 | – | – | – | –
13 | CGUAUGUGAGGAUAUGACAAUGGUAUCUUCGGAUACCAUUGUCAGAAGGUACAUGAGGAUCACCCAUGUAGAUC [Exclusion 4 - Mod Brourd Ex 4-3: 20 v.3] (puzzle: Exclusion 4) | – | – | – | 24 | – | –
14 | CGUAUGUGAGGAUAUGGUCUCGAUGACAUGAGGAUCACCCAUGUAACAUGGGACUUGUGACUAGAAGGCACUAACG [JR_Ex5_Sub023] (Eterna round: R97, puzzle: Exclusion 5) | 29.1 | 17.4 | – | – | – | –
15 | CGUCGACAUGUAGGAUAUCUGCACGUUUAGUGCAGAGAAGGACAUGAGGAUCACCCAUGUAGAUCACGACGAAUUAAUUUAAUU [ENG1/6-C2] (Eterna round: R96, puzzle: Exclusion NG 1) | 24 | 1540 | – | – | – | 205
16 | CGUCUGUAAGGAUAUGGUAGCAUUUACAUGAGGAUCACCCAUGUUACAUGGGACUAGUGACUAGAAGGUACGAACG [EX5 #54] (Eterna round: R97, puzzle: Exclusion 5) | 106 | 142 | – | – | – | –
17 | CGUGACUCAGGAUAUCUAUAGUAUCACAUGAGGAUCACCCAUGUCCAGCGAAAGCUGGAGGGAGAAGGGAGUCACG [Fiskers Ex 5 - 42] (Eterna round: R96, puzzle: Exclusion 5) | 74.1 | 188 | – | – | – | 230
18 | CGUGACUCAGGAUAUCUAUAGUAUCACAUGAGGAUCACCCAUGUCCAGCGAAAGCUGGAGGGAGAAGGGAGUCACG [Fiskers Ex 5 - 42] (puzzle: Exclusion 5) | – | – | 71.3 | 130 | 229 | –

Row | Sequence | apparent KD of MS2 coat protein (input ligand: FMN 200 uM) [nM] | apparent KD of MS2 coat protein (input ligand: none) [nM] | apparent KD of MS2 coat protein [1] [nM] | apparent KD of MS2 coat protein [2] [nM] | apparent KD of MS2 coat protein [3] [nM] | apparent KD of MS2 coat protein [4] [nM]
19 | CGUGACUCAGGAUAUGUAUAAUAUCACAUGAGGAUCACCCAUGUCCAGCGAAAGCUGGAAGCAGAAGGGAGUCACG [Fiskers Ex 5 - 39] (puzzle: Exclusion 5) | – | – | 85.1 | 41.6 | 111 | –
20 | CGUGACUGAGGAUAUCUAUGAUAUCACAUGAGGAUCACCCAUGUCCAGCGAAAGCUGGAGGGAGAAGGCAGUCACG [Fiskers Ex 5 - 30] (puzzle: Exclusion 5) | – | – | 61.5 | 220 | 185 | –
21 | CGUGACUGAGGAUAUCUAUGGUAUCACAUGAGGAUCACCCAUGUCCAGCGAAAGCUGGAGGGAGAAGGCAGUCACG [Fiskers Ex 5 - 32] (puzzle: Exclusion 5) | – | – | 117 | 186 | 250 | –
22 | CGUGCGUAUGUGAGGAUAUGCUGGUCCUUGGAUCAGCAGAAGGCACAUGAGGAUCACCCAUGUGGUGUCGUACA [salish99_Bmod_Ex4_016] (puzzle: Brourd's mod of Exclusion 4) | – | – | – | 198 | – | –
23 | CGUGCGUAUGUGAGGAUAUGCUGGUCCUUGGCUCGGCAGAAGGCACAUGAGGAUCACCCAUGUGGUGUCGUACA [salish99_Bmod_ex4_070] (puzzle: Brourd's mod of Exclusion 4) | – | – | – | 69.4 | – | –
24 | CGUGGAUGAAAGGAUAUUGAGGUCUGACUGCCACAAGAAGGUUCAACAUGAGGAUCACCCAUGUCUGAUCCUAA [Xeanorti] (Eterna round: R97, puzzle: Exclusion 6) | 47.4 | 14.2 | – | – | – | –
25 | CGUGUCUUUUACGUGAGUGGUGGGUGCAACAGGUGGGUUACAUGAGGAUCACCCAUGUCCUCACUUGCUCGUCUUUU [Grok-var2-08] (puzzle: Sensor v3, turn-off variant 2) | – | – | 76.7 | 53.5 | 69.8 | –
26 | CGUUGAUGAGGAUAUCGAUGUUAGUACAUGAGGAUCACCCAUGUUAUCCAAGUGUCGGAUCGAGAAGGUAUUGGAC [LRO-Ex5-19] (puzzle: Exclusion 5) | – | – | – | 241 | – | –
27 | CUAGAUCUUCGGAUCUAGUACAUGAGGAUCACCCAUGUGACGAGUUGAUCCUCAUACAAGCUUUUUGCUCGUCUUAU [Sensor v3 - Turn-off variant 1 - 16] (puzzle: Sensor v3, turn-off variant 1) | – | – | 19.3 | 21.3 | 11.9 | –
28 | CUAGCGAUUGUAGGAUAUCGGACUGUUUCAGUCUGAGAAGGACAUGAGGAUCACCCAUGUGAAGGAUCGUGAGAUCCACGCUAG [JL ENG1 3.79] (Eterna round: R96, puzzle: Exclusion NG 1) | 112 | 22 | – | – | – | 17.9
29 | CUAUGAGUAGGAUAUGAGCCAAAAUACAUGAGGAUCACCCAUGUCGGGUUCAUGGAGGGCUCAGAAGGAUUCAAUA [Exclusion 5 - Laarte Mod2] (Eterna round: R97, puzzle: Exclusion 5) | 59.8 | 17.1 | – | – | – | –
30 | CUAUUGUGAGGAUAUCAGUAGUAGAACAAUAGUACUACUACUGAGAAGGCACAUGAGGAUCACCCAUGUUCCUC [Fiskers Ex 4 Super stable 44 mod 7] (puzzle: Exclusion 4) | – | – | – | 57.3 | – | –
31 | CUCCGCGGAGGAUAUGCAGCCUUCGACAUGAGGAUCACCCAUGUACAAGAUCCCUUGUCGGCAGAAGGCCGGGAGA [Usena] (Eterna round: R97, puzzle: Exclusion 5) | 114 | 448 | – | – | – | –
32 | CUCCGGCGUGUAGGAUAUGGUUCCGAUUAGGAUCCAGAAGGACAUGAGGAUCACCCAUGUACAUGUCGUCGGUCGUCACCGGGC [salish99_ExNG1_r04_211] (Eterna round: R96, puzzle: Exclusion NG 1) | 107 | 29.4 | – | – | – | 24.1
33 | CUCCGGCGUGUAGGAUAUGGUUCCGUUUUGGUUCCAGAAGGACAUGAGGAUCACCCAUGUACAUGUCGUCGGUCGUCACCGGGC [salish99_ExNG1_r04_214] (Eterna round: R96, puzzle: Exclusion NG 1) | 104 | 29.8 | – | – | – | 22.2
34 | CUCCUCAUGACGCCCAACCACAUGAGGAUCACCCAUGUGCAGGCUUUUUGUCGUCUUAUAAUAAAACCGAGGAUGCG [Edusveti] (puzzle: Sensor v3, turn-off variant 1) | – | – | 13.3 | 49.4 | 13 | –
35 | CUCCUCAUGGCGCCUAAACACAUGAGGAUCACCCAUGUACAGGCUUUUUGCCGUCUUAUAAUAAAACCGAGGAGGCG [Atrelele] (puzzle: Sensor v3, turn-off variant 1) | – | – | 21 | 146 | 23.6 | –
